In US11752213B2, “Surfaces having reduced non-specific binding and antigenicity” (Duke University, priority 2015, dated 2023):

Test system: IgG Ab to PEG in patient plasma
Experiment: Indirect ELISA detection of APAs in patient plasma against Adagen-coated plates
Type: binding, human
Details: 5 replicates
Experimental: Informed signed consent was obtained from either the patient or from next of kin. (A) ELISA detection of APAs: Plasma samples diluted 1:21 in 1% BSA in PBS were tested by ELISA for IgG Ab to PEG, but using Adagen® (Sigma Tau Pharmaceuticals, Gaithersburg, Md.) rather than Krystexxa® as the antigen. (B) Surface fluoroimmunoassay against patient APAs: Polymer-coated surfaces were incubated with patient plasma samples diluted 1:3 in PBS for 1 h, and then washed 3 times with wash buffer (0.5% CHAPS in PBS). Next, the surfaces were exposed to a 1 μg/mL solution of Cy5-goat-anti-human IgG detection Ab (R & D Systems, Inc.) for 30 min. Surfaces were then rinsed again to remove any loosely-bound proteins, centrifuged at 4800 rpm for 15 s to wick away excess liquid, then allowed to dry under ambient conditions. Fluorescence imaging and analysis of all samples was performed using an Axon Genepix 4400 tabletop scanner and ImageJ Fiji as described above.
We performed an indirect ELISA on these patient plasma samples to quantify the level of IgG binding to Adagen (PEGylated adenosine deaminase).

B1: ADAGEN: a PEGylated adenosine deaminase for treating severe combined immunodeficiency disease (SCID) (conjugate)
chain: AQTPAFNKPKVELHVHLDGAIKPETILYYGRKRGIALPADTPEELQNIIGMDKPLSLPEFLAKFDYYMPAIAGCREAVKRIAYEFVEMKAKDGVVYVEVRYSPHLLANSKVEPIPWNQAEGDLTPDEVVSLVNQGLQEGERDFGVKVRSILCCMRHQPSWSSEVVELCKKYREQTVVAIDLAGDETIEGSSLFPGHVKAYAEAVKSGVHRTVHAGEVGSANVVKEAVDTLKTERLGHGYHTLEDATLYNRLRQENMHFEVCPWSSYLTGAWKPDTEHPVVRFKNDQVNYSLNTDDPLIFKSTLDTDYQMTKNEMGFTEEEFKRLNINAAKSSFLPEDEKKELLDLLYKAYGMPSPA
Q: What does the source list for B1?
A: OD 405 nm Avg (Pt# 1, APA neg, sample 929-237-01): 0.149; OD 405 nm Avg (Pt# 2, APA pos, sample 929-219-07): 0.714; OD 405 nm Avg (Pt# 3, APA pos, sample 929-237-12): 1.243; OD 405 nm Avg (Pt# 4, APA pos, sample 929-241-07): 1.679; OD 405 nm Avg (Pt# 5, APA pos, sample 929-218-21): 3.059
